Values of other authors in US20080181869A1, “THERAPEUTICS TO FACILITATE CELL TRANSPLANTATION FOR LIVER DISEASE” (priority 2006, published 2008).

Assays:
[1] = in vivo
[2] = tested on: hepatic stellate cells (HSCs); conditions: rat CCl4 model of liver damage
[3] = tested on: rat model of hypertension
[4] = tested on: gene for TGF-β1; conditions: bleomycin-induced model of lung fibrosis, exogenous interferon-γ
[5] = tested on: lung fibroblasts; conditions: in vitro
[6] = tested on: liver; conditions: after hepatic resection
[7] = tested on: tumor cell; conditions: in vitro or in vivo studies
[8] = tested on: HSC
[9] = tested on: CCl4-exposed rats

## relaxin
[1]
  adverse events: few adverse events
[2]
  collagen deposition by hepatic stellate cells: inhibit collagen deposition
[3]
  cardiac and renal fibrosis: reversing cardiac and renal fibrosis

## interferon-γ: interferon that inhibits proliferation of lung fibroblasts
[4]
  transcription of the gene for TGF-β1: down-regulated
[5]
  proliferation of lung fibroblasts: inhibits the proliferation of lung fibroblasts in a dose-dependent manner
  synthesis of protein in fibroblasts: reduces the synthesis of protein in fibroblasts

B1: follistatin: peptide inhibitor of Activin A, a member of the transforming growth factor-beta superfamily (protein, UniProt P19883 30-344, looked up)
Follistatin: GNCWLRQAKNGRCQVLYKTELSKEECCSTGRLSTSWTEEDVNDNTLFKWMIFNGGAPNCIPCKETCENVDCGPGKKCRMNKKNKPRCVCAPDCSNITWKGPVCGLDGKTYRNECALLKARCKEQPELEVQYQGRCKKTCRDVFCPGSSTCVVDQTNNAYCVTCNRICPEPASSEQYLCGNDGVTYSSACHLRKATCLLGRSIGLAYEGKCIKAKSCEDIQCTGGKKCLWDFKVGRGRCSLCDELCPDSKSDEPVCASDNATYASECAMKEAACSSGVLLEVKHSGSCNSISEDTEEEEEDEDQDYSFPISSILEW
[6]
  liver weight: significantly increases liver weight
[7]
  tumor cell growth: did not accelerate tumor cell growth
[8]
  TGF-β-induced secretion of collagen from HSC: inhibit TGF-β-induced secretion of collagen
[9]; CCl4-exposed rats treated with the peptide
  reduction in fibrosis: 32%
[9]; CCl4-exposed rats, during treatment
  decrease in hepatocyte apoptosis: 87%
[9]; week of follistatin treatment
  time of maximal effect on hepatocyte apoptosis: 4 week
